Key:
[1] = Optimum pH/temperature, pH stability and heat stability of sorbitol kinase; format: physicochemical, Erwinia sp. SK-472-20
Method: One milliliter of a reaction mixture consisting of 0.2M Tris-HCl buffer solution (pH 8.5) 0.2 ml, 0.1M ATP 0.02 ml, 0.1M MgCl2 0.02 ml, 100 U/ml sorbitol-6-phosphate dehydrogenase (refer to referential example) 0.05 ml, 10 mM NAD 0.1 ml, 100 U/ml diaphorase (Asahi Chemical Ind. Co.) 0.05 ml, 0.25% NTB 0.1 ml, 1M sorbitol 0.1 ml, 10% Triton X-100 0.01 ml and distilled water 0.3 ml was pre-heated at 37° C. for 1 minute, and the enzyme solution 20 μl was added thereto, then the mixture was incubated for 10 minutes.
Reaction was terminated by adding 0.1N HCl 2 ml and optical density of the mixture was measured using 1.0 cm cell at 550 nm within 5 minutes (As). Also optical density of distilled water 20 μl in place of the enzyme solution was measured in the same manner as above as a blank test (Ab). Enzymatic activity is determined by difference in the absorption between the optical density of the enzyme solution (As) and the blank test (Ab), i.e. (As-Ab). A unit of enzyme activity is defined as an amount of enzyme which generate 1 μm of reduced NAD in one minutes at 37° C. and calculated by the following equation.
Optimum pH is measured by the above enzyme assay method. In FIG. 1, 100 mM phosphate buffer is used for pH 6.0-8.0 (-.largecircle.-); 100 mM Tris-HCl buffer for pH 7.0-9.0 (-.circle-solid.-); and 100 mM glycine-sodium hydroxide buffer for pH 9.0-10.5 (-.quadrature.-). Optimum pH is 8.5-9.5.
100 mM buffer solutions containing sorbitol kinase 0.5 U/ml were treated at 60° C. for 15 minutes, and remaining activity was measured by the above enzyme assay method. In FIG. 2, 100 mM acetate buffer is used for pH 4.5-6.0 (-.largecircle.-); 100 mM phosphate buffer for pH 6.0-8.0 (-.circle-solid.-); 100 mM Tris-HCl buffer for pH 7.0-8.5 (-.quadrature.-); and 100 mM glycine-sodium hydroxide buffer for pH 9.0-10.5 (-.box-solid.-). Most preferable stability is observed at pH 6.5-10.0.
Optimum temperature of the enzyme was measured by changing temperature range at 37° C.-60° C. according to the above assay method. Result is shown in FIG. 3, in which optimum temperature of the present enzyme is approx. 50° C.
100 mM Tris-HCl buffer solution (pH 8.5) containing sorbitol kinase 0.5 U/ml was treated at various temperatures for 15 minutes, and remaining activity was measured by the above enzyme assay method. Results are shown in FIG. 4 in which the enzyme is stable at least up to 60° C.

[2] = Isoelectric point of sorbitol kinase (electrophoresis using carrier ampholytes); format: physicochemical, Erwinia sp. SK-472-20
Text: 4.8±0.5 (electrophoresis using carrier ampholytes)

[3] = Physico-chemical properties of sorbitol kinase produced by the transformant; format: physicochemical, Erwinia sp. SK-472-20 gene expressed in E.coli; conditions: enzyme produced by transformant

B1: sorbitol kinase: ATP-utilizing sorbitol kinase of Erwinia sp. SK-472-20, stable up to 60° C., amino acids 1 to 313 of SEQ ID NO: 1; also produced by E.coli transformant (protein)
chain: MRIGIDLGGTKTEVIALSEQGEQLFRHRLPTPRDDYHQTIETIARLVDMAEQATGQTGTVGMGIPGSISPYTGVVKNANSTWLNGQPFDKDLSQRLNREVRLANDANCLAVSEAIDGAAAGAQTVFAVIIGTGCGAGVALGGRAHIGGNGTAGEWGHNPLPWMDEDELKYRAEVPCYCGKQGCIETFISGTGFATDYHRLSGQPLKGNEIMRRVGEHDPVAELALSRYEMRLAKSLAHVVNILDPDVIVLGGGMSNVDRLYATVPNLVKQWVFGGECETPIRKRCTGTPAACAAPRGSGRYSHSPSPYVRGAG
- Heat stability (stable up to) ([1]; 100 mM Tris-HCl pH 8.5, 0.5 U/ml, 15 minutes, remaining activity, FIG. 4): ≥ 60 °C
- Optimum pH ([1]; 100 mM phosphate, Tris-HCl, glycine-sodium hydroxide buffers, FIG. 1): 8.5-9.5
- pH stability (most preferable stability) ([1]; 0.5 U/ml in 100 mM buffers, 60° C. for 15 minutes, remaining activity, FIG. 2): 6.5-10.0
- Optimum temperature ([1]; range 37° C.-60° C., FIG. 3): approx. 50 °C
- Isoelectric point [2]: 4.8±0.5
- Heat stability (stable up to) [3]: up to 60 °C
- Isoelectric point [3]: 4.80±0.5
- Optimum pH [3]: 8.5-9.5
- pH stability [3]: 6.5-10.0
